Assays:
PhoP [1] = target: T1, PhoP (Mycobacterium tuberculosis, UniProt P71814 1-247); test: ITC
PhoP [2] = target: T1, PhoP; test: ITC; remark: listed apart in the source
His-PhoP = His-PhoP (Mycobacterium tuberculosis, UniProt P71814 1-247); test: SELEX
PhoP [3] = target: T1, PhoP; test: ITC; remark: listed apart in the source
PhoP [4] = target: T1, PhoP; test: competition

B1: Rv3134c (dsDNA)
DNA 1: GCCATTTCTGGGACTTTGCTGTGAAAAGCTG
DNA 2: CAGCTTTTCACAGCAAAGTCCCAGAAATGGC
PhoP [1]
  Kd: 61.7 ± 5.3 nM

B2: RD6m1 (dsDNA)
DNA 1: AGTACCGGCGCTGACTTTCACAGCTTTCAT
DNA 2: ATGAAAGCTGTGAAAGTCAGCGCCGGTACT
PhoP [2]
  binding signal: ~40 fold lower affinity than RD6

B3: espA -246 (dsDNA)
DNA 1: CTTGGGATCGCGCCGCCTACACGGCGGTTGGC
DNA 2: GCCAACCGCCGTGTAGGCGGCGCGATCCCAAG
PhoP [1]
  binding result: no binding

B4: fadD9 (dsDNA)
DNA 1: CATCTCACAGCCGATCAGCAGCAGGCTT
DNA 2: AAGCCTGCTGCTGATCGGCTGTGAGATG
PhoP [1]
  Kd: 82 ± 4 nM

B5: RD25 (dominant SELEX sequence) (dsDNA)
DNA 1: CTGGAGCATATGGTCCAGTTAGTACCTCACAGCACTTTCAGAGCTTTCATATGCCTGCACC
DNA 2: GGTGCAGGCATATGAAAGCTCTGAAAGTGCTGTGAGGTACTAACTGGACCATATGCTCCAG
His-PhoP
  binding result: binds

B6: RD6m23 (dsDNA)
DNA 1: AGTACCTCACAGCAATTTCACAGCTTTCAT
DNA 2: ATGAAAGCTGTGAAATTGCTGTGAGGTACT
PhoP [3]
  binding result: binds

B7: WB6 D1 (dsDNA)
DNA 1: ATACACAGCTGATTAACAGGATCTATGCC
DNA 2: GGCATAGATCCTGTTAATCAGCTGTGTAT
PhoP [4]
  binding result: binds

B8: WB6 D5 (dsDNA)
DNA 1: AGATACACAGCTGATTAACAGGATCTA
DNA 2: TAGATCCTGTTAATCAGCTGTGTATCT
PhoP [4]
  binding result: binds
